Assay results as given in article PMC4027194.

System: G5 1297-1412 (RBS1)
Assay: EMSA

## FMDV IRES domain 5
  Kd: 20 µM
